Measurements taken from PMC3958483 (PLoS ONE, 2014).
Non-standard residues stand in square brackets, D forms with d. No end group written: not given here. *: point of attachment. Biotin = O=C1N[C@H]2[C@H](CS[C@H]2CCCCC(=O)*)N1; pY = N[C@@H](Cc1ccc(OP(=O)(O)O)cc1)C(=O)O

How the values were obtained:
Conditions in all cases: both partners purified
[1] = target: T1, EAT-2 (recombinant full-length human EAT-2) (human, UniProt O14796 1-132); test: SPR; biotinylated phosphopeptides immobilised on streptavidin chip (about 25 RU single motifs); soluble recombinant protein injected in two-fold dilutions; 37°C; HBS-EP (10 mM HEPES pH 7.4, 150 mM NaCl, 3.4 mM EDTA, 0.005% P20); equilibrium binding, one-site model; proteins purified on the same day as SPR (Tables 1 and 6)
T1 construct: EAT-2, human, full length; source: E. coli BL21(DE3)pLysS, purified (Co2+ or Ni2+ column, size exclusion chromatography)
T1 sequence (looked up): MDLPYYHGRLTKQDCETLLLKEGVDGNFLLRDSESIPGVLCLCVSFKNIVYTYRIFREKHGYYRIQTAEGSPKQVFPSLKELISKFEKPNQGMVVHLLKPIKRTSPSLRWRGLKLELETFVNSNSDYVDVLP

[2] = target: T2, SHIP SH2 (SH2 domain from human SHIP-1) (human, UniProt Q92835 5-101); test: SPR; biotinylated phosphopeptides immobilised on streptavidin chip (about 25 RU single, 50 RU tandem motifs); soluble recombinant protein injected; 37°C; HBS-EP; equilibrium binding (Table 4; same-day purification not given)
T2 construct: SHIP-1, human, single SH2 domain; also called hSHIP SH2; SHIP-1 SH2 domain; source: E. coli BL21(DE3)pLysS, purified (Co2+ or Ni2+ column, size exclusion chromatography)
T2 sequence (looked up): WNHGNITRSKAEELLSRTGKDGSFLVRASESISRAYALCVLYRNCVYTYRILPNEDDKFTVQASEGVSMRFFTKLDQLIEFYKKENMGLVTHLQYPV

[3] = target: T3, SHP-2 N-terminal + C-terminal (N+C) SH2 domains (human, UniProt Q06124 2-219); test: as above
T3 construct: SHP-2, human, N-terminal + C-terminal SH2 domains, aa 2–219; also called SHP-2 (SH2-SH2); SHP2 N+C SH2; source: E. coli BL21(DE3)pLysS, purified (Oxford Protein Production Facility / in house; size exclusion chromatography)
T3 sequence (looked up): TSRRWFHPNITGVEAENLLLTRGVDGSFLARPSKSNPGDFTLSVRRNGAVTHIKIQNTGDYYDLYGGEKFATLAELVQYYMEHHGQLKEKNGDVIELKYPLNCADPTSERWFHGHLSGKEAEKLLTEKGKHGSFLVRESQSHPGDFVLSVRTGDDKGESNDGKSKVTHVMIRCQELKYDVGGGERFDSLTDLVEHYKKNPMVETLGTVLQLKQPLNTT

[4] = target: T1, EAT-2 (recombinant full-length human …); test: as above
[5] = target: T4, PLCγ2 SH2-SH2-SH3 (tandem SH2 domains plus the SH3 domain of PLCγ2) (human, UniProt P16885 519-838); test: SPR; biotinylated phosphopeptides immobilised on streptavidin chip (about 25 RU single motifs); soluble recombinant protein injected in two-fold dilutions; 37°C; HBS-EP (10 mM HEPES pH 7.4, 150 mM NaCl, 3.4 mM EDTA, 0.005% P20); equilibrium binding, one-site model; proteins purified on the same day as SPR (Tables 1 and 6)
T4 construct: PLCγ2, human, tandem SH2 domains plus SH3 domain, aa 519–838; Printed MW = 42415 of the recombinant protein; also called recombinant PLCγ2 SH2 domains; source: E. coli BL21(DE3)pLysS, purified (Co2+ or Ni2+ column, size exclusion chromatography, same day as SPR)
T4 sequence: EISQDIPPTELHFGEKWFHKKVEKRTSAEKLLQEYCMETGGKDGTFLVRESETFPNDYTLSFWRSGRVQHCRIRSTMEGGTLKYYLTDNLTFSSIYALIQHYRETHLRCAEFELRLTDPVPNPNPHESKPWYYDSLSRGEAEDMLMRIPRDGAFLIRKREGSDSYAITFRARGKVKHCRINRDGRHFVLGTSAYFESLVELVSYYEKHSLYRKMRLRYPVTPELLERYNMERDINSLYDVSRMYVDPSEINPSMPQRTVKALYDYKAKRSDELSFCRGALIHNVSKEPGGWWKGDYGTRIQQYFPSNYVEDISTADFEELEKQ

[6] = target: T5, PLCγ1 SH2-SH2-SH3 (tandem SH2 domains plus the SH3 domain of PLCγ1) (human, UniProt P19174 536-863); test: as above
T5 construct: PLCγ1, human, tandem SH2 domains plus SH3 domain, aa 536–863; Printed MW = 42531 of the recombinant protein; also called recombinant PLCγ1; source: E. coli BL21(DE3)pLysS, purified (Co2+ or Ni2+ column, size exclusion chromatography, same day as SPR)
T5 sequence: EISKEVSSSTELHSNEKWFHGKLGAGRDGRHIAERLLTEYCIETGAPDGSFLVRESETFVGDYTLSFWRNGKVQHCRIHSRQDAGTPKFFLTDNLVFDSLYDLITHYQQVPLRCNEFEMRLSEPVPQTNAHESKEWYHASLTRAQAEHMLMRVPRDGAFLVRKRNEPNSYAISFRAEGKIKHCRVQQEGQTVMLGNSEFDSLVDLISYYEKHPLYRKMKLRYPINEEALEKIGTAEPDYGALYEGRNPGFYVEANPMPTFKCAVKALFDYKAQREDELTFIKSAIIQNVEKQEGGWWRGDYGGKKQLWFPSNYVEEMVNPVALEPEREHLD

[7] = target: T3, SHP-2 N-terminal + C-terminal (N+C) SH2 …; test: SPR; biotinylated tandem phosphopeptides immobilised on streptavidin chip; SHP-2 N+C SH2 injected; 25°C; HBS-EP; equilibrium binding (Table 4)
[8] = target: T6, SAP (recombinant full-length human SAP) (human, UniProt O60880 1-128); test: SPR; biotinylated phosphopeptides immobilised on streptavidin chip (about 25 RU single motifs); soluble recombinant protein injected in two-fold dilutions; 37°C; HBS-EP (10 mM HEPES pH 7.4, 150 mM NaCl, 3.4 mM EDTA, 0.005% P20); equilibrium binding, one-site model; proteins purified on the same day as SPR (Tables 1 and 6)
T6 construct: SAP, human, full length; also called SH2D1A; source: E. coli BL21(DE3)pLysS, purified (Co2+ or Ni2+ column, size exclusion chromatography)
T6 sequence (looked up): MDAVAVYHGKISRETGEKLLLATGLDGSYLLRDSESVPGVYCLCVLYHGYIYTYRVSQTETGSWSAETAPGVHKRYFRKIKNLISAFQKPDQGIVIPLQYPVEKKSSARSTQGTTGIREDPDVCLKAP

Binder	Kd [3] [nM]	Kd [5] [nM]	Kd [6] [nM]	Kd [7] [nM]	further results
Biotin-EFLTI[pY]EDVKD (CD244 (SLAMF4), human, cytoplasmic ITSM1; also called SLAMF4 ITSM1; source: synthetic peptide (Peptide Protein Research Ltd)) [CD244 ITSM1 phosphopeptide (Biotin-EFLTIpYEDVKD)]	29000	210	800		Kd [1]: 20 nM; Kd [2]: 11000 nM; Kd [4]: 60 nM
CD244 ITSM1,ITSM2 (equimolar mixture of single ITSM on chip) (other, also: equimolar mixture of two separate peptides) chain 1: Biotin-EFLTI[pY]EDVKD chain 2: Biotin-GGSTI[pY]SMIQS	22000				
Biotin-NSNSD[pY]VDVLP (EAT-2, human, tail with the conserved tyrosine motif Y127; also called EAT-2 pY127; EAT-2 tail phosphopeptide; source: synthetic peptide (Peptide Protein Research Ltd)) [EAT-2 Y127 phosphopeptide (Biotin-NSNSDpYVDVLP)]		30	10		
Biotin-PAYTL[pY]SLIQPSRKSGSRKRNHSPSFNSTI[pY]EVIGK (CD244 (SLAMF4), human, cytoplasmic stretch with ITSM3 and ITSM4; source: synthetic peptide (Peptide Protein Research Ltd)) [CD244 ITSM3+ITSM4 tandem phosphopeptide]	10000			7400	
ENTITYSLLMH (also: phosphorylated, site not given here, biotinylated, site not given here) [FCRγIIb (CD32) phosphopeptide]					Kd [2]: 470 nM
Biotin-PANTV[pY]STVEI (CRACC (SLAMF7), human, cytoplasmic ITSM2; also called SLAMF7 ITSM2; source: synthetic peptide (Peptide Protein Research Ltd)) [CRACC ITSM2 phosphopeptide (Biotin-PANTVpYSTVEI)]					Kd [8]: 440 nM; Kd [1]: 3 nM
EDTLTYADLDMVHLNRTPKQPAPKPEPSFSEYASVQV (also: phosphorylated, sites not given here, biotinylated, site not given here) [SIRPα ITIM3+ITIM4 tandem phosphopeptide]				6400	
Biotin-HNPG[pY]LVVLPD (LAT, human, stretch around Y132; also called LAT pY132; source: synthetic peptide (Peptide Protein Research Ltd)) [LAT Y132 phosphopeptide (Biotin-HNPGpYLVVLPD)]		20	20		
Biotin-TNDIT[pY]ADLNLPKGKKPAPQAAEPNNHTE[pY]ASIQT (SIRPα, human, cytoplasmic stretch with ITIM1 and ITIM2; source: synthetic peptide (Peptide Protein Research Ltd)) [SIRPα ITIM1+ITIM2 tandem phosphopeptide]	1000			500	
Biotin-EFLTI[pY]EDVKDLKTRRNHEQEQTFPGGGSTI[pY]SMIQS (CD244 (SLAMF4), human, cytoplasmic stretch with ITSM1 and ITSM2; also called tandem ITSM peptide; source: synthetic peptide (Peptide Protein Research Ltd)) [CD244 ITSM1+ITSM2 tandem phosphopeptide]	2200			1400	
